In article PMC11826994:

Experiments:
[1] = biological target: full-length histone H4 with L-isoaspartate at position 24 (H4isoD24), semisynthetic (UniProt P62805)
[2] = biological target: full-length histone H4 with the canonical Asp at position 24 (H4D24), semisynthetic (UniProt P62805)

| k (1,obs), rate of H4K20 monomethylation by Set8 on 12-mer nucleosome arrays containing H4isoD24 (with Suv4-20h1 and AdoMet; HRMS) [1] [min^–1] | k (1,obs), rate of H4K20 monomethylation by Set8 on 12-mer nucleosome arrays containing H4D24 (with Suv4-20h1 and AdoMet; HRMS) [2] [min^–1] | k (2,obs), rate of H4K20me1 to H4K20me2 methylation by Suv4-20h1 on 12-mer nucleosome arrays containing H4isoD24 (with Set8 and AdoMet; HRMS) [1] [min^–1] | k (2,obs), rate of H4K20me1 to H4K20me2 methylation by Suv4-20h1 on 12-mer nucleosome arrays containing H4D24 (with Set8 and AdoMet; HRMS) [2] [min^–1] | Substance |
| --- | --- | --- | --- | --- |
| 0.0016 | 0.0059 | – | – | methyltransferase Set8 (from UniProt Q9NQR1 1-393) (enzyme) |
| – | – | 0.002 | 0.033 | methyltransferase Suv4-20h1 (from UniProt Q4FZB7 1-885) (enzyme) |
